Changes are numbered by the printed parent chain. No end group written: not given here.
T1: MUC1 alanine library glycopeptide 8 (human, GalNAc-Serine / GalNAc-Threonine at the bold underlined positions of Table 10A (marking not preserved); the Ser-GalNAc at position 20 is replaced by alanine)
T1 construct: Position 20 (Ser-GalNAc) replaced by alanine
T1 peptide: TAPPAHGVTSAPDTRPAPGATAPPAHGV

T2: MUC1 alanine library glycopeptide 9 (human, GalNAc-Serine / GalNAc-Threonine at the bold underlined positions of Table 10A (marking not preserved); the Thr-GalNAc at position 21 is replaced by alanine)
T2 construct: Position 21 (Thr-GalNAc) replaced by alanine
T2 peptide: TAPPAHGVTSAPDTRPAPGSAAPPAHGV

T3: Glycosylated peptide RPAPGSTAPPAHGVT (Table 5, SPR) (human, also: GalNAc at sites not preserved)
T3 construct: Printed without biotin
T3 peptide: RPAPGSTAPPAHGVT

T4: 1 (GalNAc-Ser / GalNAc-Thr at the positions marked bold and underlined in Table 10A (the marking is lost in the text as given))
T4 construct: also called MUC1 alanine library glycopeptide 1; peptide 1
T4 peptide: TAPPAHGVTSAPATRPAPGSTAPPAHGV

T5: 2 (GalNAc-Ser / GalNAc-Thr at the positions marked bold and underlined in Table 10A (the marking is lost in the text as given))
T5 construct: also called MUC1 alanine library glycopeptide 2; peptide 2
T5 peptide: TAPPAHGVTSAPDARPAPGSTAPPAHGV

T6: Negative (none (non-glycosylated))
T6 construct: also called Negative Control
T6 peptide: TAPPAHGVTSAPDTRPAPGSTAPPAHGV

T7: Irrelevant Glycopeptide (GalNAc-Ser / GalNAc-Thr at the positions marked bold and underlined in Table 10B (the marking is lost in the text as given))
T7 peptide: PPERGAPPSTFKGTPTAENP

T8: MUC1 alanine library glycopeptide 3 (human, GalNAc-Serine / GalNAc-Threonine at the bold underlined positions of Table 10A (marking not preserved))
T8 construct: Position 15 (R) replaced by alanine
T8 peptide: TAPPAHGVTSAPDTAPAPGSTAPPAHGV

T9: MUC1 alanine library glycopeptide 4 (human, GalNAc-Serine / GalNAc-Threonine at the bold underlined positions of Table 10A (marking not preserved))
T9 construct: Position 16 (P) replaced by alanine
T9 peptide: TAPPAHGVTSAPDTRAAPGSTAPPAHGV

T10: MUC1 alanine library glycopeptide 12 (human, GalNAc-Serine / GalNAc-Threonine at the bold underlined positions of Table 10A (marking not preserved))
T10 peptide: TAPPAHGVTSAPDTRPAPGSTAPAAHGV

T11: MUC1 alanine library glycopeptide 6 (human, GalNAc-Serine / GalNAc-Threonine at the bold underlined positions of Table 10A (marking not preserved))
T11 construct: Position 18 (P) replaced by alanine
T11 peptide: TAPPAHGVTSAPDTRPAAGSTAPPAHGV

T12: MUC1 alanine library glycopeptide 10 (human, GalNAc-Serine / GalNAc-Threonine at the bold underlined positions of Table 10A (marking not preserved))
T12 construct: Position 22 (A) replaced by glycine
T12 peptide: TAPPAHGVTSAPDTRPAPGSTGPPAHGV

T13: MUC1 alanine library glycopeptide 11 (human, GalNAc-Serine / GalNAc-Threonine at the bold underlined positions of Table 10A (marking not preserved))
T13 construct: Position 23 (P) replaced by alanine
T13 peptide: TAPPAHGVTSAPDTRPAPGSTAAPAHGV

B1: 1AG (antibody, V domains shown)
VH: EVKLLESGGGLVQPGGSLKLSCAASGFDFSRDWMSWVRQAPGKGLEWIGEINPDSSTKNYTPSLKDKFIISRDNAKNTLFLQMSSVRSEDTALYYCATSHYYGLFGYWGQGTLVTVSA
VL: DIVLTQSPASLTVSLGQRATISCRASKSVSTSGYSYMHWYQQKPGQPPKLLIYLASYLESGVPARFSGSGSGTDFTLNIHPVEEEDAATYYCQHSRELPRTFGGGTKLEIK
notes: Mouse monoclonal antibody from Balb/c hybridoma; Used as hybridoma supernatant in the ELISAs; also called mAb 1AG; antibody 1AG
B2: 4AG (antibody, V domains shown)
VH: EVKLLESGGGLVQPGGSLKLSCVASGFDFSRYWMSWVRQAPGKGPEWIGEINPESNTMNYSPSLKEKFIISRDTAKNMLYLQMSKVRSEDTALYYCATSHHYGLFDYWGQGTLVTVSA
VL: B1 VL with T12A, S35N, M37I, Y91F, I110F
notes: Mouse monoclonal antibody from Balb/c hybridoma; Used as hybridoma supernatant in the ELISAs; also called mAb 4AG; antibody 4AG

What was measured:
[1] = biological target: T1, MUC1 alanine library glycopeptide 8; assay: ELISA, peptide coated at 0.25 µg/ml, antibody supernatant; OD mutant peptide / OD wild type glycopeptide (SEQ ID NO:99)
Procedure: (§1) Glycopeptides and relevant controls were diluted to 0.25 μg/ml in 0.2 M bicarbonate buffer pH 9.8 and 100 μl was plated onto each well of a high binding ELISA plate. Plates were then incubated overnight at 4° C. After discarding the coating buffer, the plate was blocked with 300 μl per well of blocking buffer (2.5% BSA in 1×PBS) for 1 hr at room temperature. Blocking buffer was then discarded, and 100 μl per well of antibody supernatant for each of 5E5, 1AG, and 4AG (diluted in blocking buffer) was added and incubated for 1 hr at room temperature. Antibody supernatant dilutions were previously optimized for each antibody (data not shown). Biotinylated Villa Villosa lectin (100 μl per well of 1 μg/ml in blocking buffer) was added to the plate as a control to detect the presence of GalNAc modified residues on the peptide. Plates were washed 3 times with 300 μl per well 1×TBS/0.05% Tween-20 (TBST). The secondary antibody Goat-anti mouse IgG (H+L)-HRP was diluted 1/5000 in blocking buffer and 100 μl of the diluted antibody was added per well and incubated on the plate for 1 hr at room temperature. Streptavidin-HRP was diluted 1/3000 in blocking buffer and 100 μl of the diluted streptavidin-HRP was added to wells containing the biotinylated lectin. Following secondary incubation, the plate was washed 4 times with 300 μl of TBST per well and then developed with 75 μl of room temperature 1-Step TMB substrate. After 1 minute, color development was stopped using 75 μl 2 N sulfuric acid. The plate was then read at 450 nm using a plate reader (Molecular Device SpectraMax i3).

[2] = biological target: T2, MUC1 alanine library glycopeptide 9; assay: as above
Procedure: as §1

[3] = biological target: T3, Glycosylated peptide RPAPGSTAPPAHGVT …; assay: SPR, Biacore T200, antibody on chip, peptide injected in single-cycle 6.25-100 nM, 25 C
Procedure: Binding of the 1AG and 4AG antibodies to one glycysolated and one non-glycosylated peptide (Table 5) was assessed by surface plasmon resonance (SPR).
All SPR experiments were performed on a Biacore T200 with a CM5 sensor chip with 10,000 RU anti-mouse antibody on each channel (GE Healthcare) at 25° C. with HBS-P+ as running and sample buffer (10 mM HEPES pH 7.4, 150 mM NaCl, 0.05% Tween 20, and 1 mg/ml BSA) and 10 mM glycine, pH 1.7 as regeneration buffer.
The 1AG and 4AG antibodies were immobilized as a 30 μg/mL solution in 10 mM sodium acetate, pH 5.0 using standard amine coupling chemistry (EDC/NHS activation). Antibody capture was performed using a 10× dilution into reaction buffer for 7 to 10 minutes at 5 μL/min. Immobilization levels of 600 to 1000 RU were used. […] The dissociation was monitored for 5 minutes to 30 minutes.

BSA [4] = biological target: T14, BSA (bovine, UniProt P02769); assay: indirect ELISA on BSA blocked control wells, hybridoma supernatant, anti-mouse IgG-HRP, OD 450 nm
T14 construct: commercial protein in control wells; also called bovine serum albumin
Procedure: (§2) ELISA plates were coated with MUC1 peptides titrated in 0.2 M bicarbonate buffer, pH 9.4 over night in concentrations ranging from 0.08 μg/ml to 10 μg/ml. BSA was used as a control/measure of background. The plates were then blocked with SuperBlock™ (Thermo Fisher) for 1 hr at room temperature. After plate washing, 1AG and 4AG hybridoma supernatants were incubated on the ELISA plate for 1 hour. The plates were then washed, and then incubated with secondary antibody (1/3000 Goat Anti-mouse IgG (H+L) HRP (abcam 62-6520)) for 1 hour. The plate was then washed and color was developed with 1-Step™ Ultra TMB (Thermo Fisher) for 2 minutes. Color development was then stopped with 2 N Sulfuric Acid. Absorbance at 450 nm was then measured.

1 = biological target: T4, 1; assay: alanine-scan ELISA: peptides coated at 0.25 ug/ml, antibody supernatant, anti-mouse IgG-HRP; OD450 divided by OD450 on the wild-type peptide
Procedure: as §1

2 = biological target: T5, 2; assay: as above
Procedure: as §1

Negative = biological target: T6, Negative; assay: as above
Procedure: as §1

Irrelevant Glycopeptide = biological target: T7, Irrelevant Glycopeptide; assay: as above
Procedure: as §1

[5] = biological target: T8, MUC1 alanine library glycopeptide 3; assay: as above
Procedure: as §1

[6] = biological target: T9, MUC1 alanine library glycopeptide 4; assay: as above
Procedure: as §1

[7] = biological target: T1, MUC1 alanine library glycopeptide 8; assay: as above
Procedure: as §1

[8] = biological target: T10, MUC1 alanine library glycopeptide 12; assay: as above
Procedure: as §1

BSA [9] = biological target: T14, BSA; assay: indirect ELISA, BSA control wells drawn on the peptide axis, hybridoma supernatant, anti-mouse IgG-HRP, OD 450 nm
Procedure: as §2

[10] = biological target: T11, MUC1 alanine library glycopeptide 6; assay: alanine-scan ELISA: peptides coated at 0.25 ug/ml, antibody supernatant, anti-mouse IgG-HRP; OD450 divided by OD450 on the wild-type peptide
Procedure: as §1

[11] = biological target: T12, MUC1 alanine library glycopeptide 10; assay: as above
Procedure: as §1

[12] = biological target: T13, MUC1 alanine library glycopeptide 11; assay: as above
Procedure: as §1

T14 sequence (P02769 25-607 limits assumed): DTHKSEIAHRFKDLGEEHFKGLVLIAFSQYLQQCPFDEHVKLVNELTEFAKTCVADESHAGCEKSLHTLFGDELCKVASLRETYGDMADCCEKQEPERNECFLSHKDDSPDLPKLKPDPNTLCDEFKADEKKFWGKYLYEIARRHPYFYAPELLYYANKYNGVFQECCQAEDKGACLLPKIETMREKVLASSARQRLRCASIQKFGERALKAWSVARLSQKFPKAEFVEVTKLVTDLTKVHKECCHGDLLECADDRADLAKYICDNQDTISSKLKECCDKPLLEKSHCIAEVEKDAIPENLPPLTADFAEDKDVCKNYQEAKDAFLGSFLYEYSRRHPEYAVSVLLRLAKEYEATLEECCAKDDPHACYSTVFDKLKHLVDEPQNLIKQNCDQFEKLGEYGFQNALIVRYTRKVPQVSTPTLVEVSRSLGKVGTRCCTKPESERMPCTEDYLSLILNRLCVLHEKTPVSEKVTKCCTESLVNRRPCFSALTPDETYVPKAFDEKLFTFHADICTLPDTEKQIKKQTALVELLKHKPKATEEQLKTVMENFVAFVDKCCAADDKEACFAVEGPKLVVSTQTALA

| Molecule | percent binding compared to the wild type peptide [1] [%] | percent binding compared to the wild type peptide [2] [%] | Kd [3] [nM] | koff [3] [s⁻¹] | kon [3] [M⁻¹ s⁻¹] | binding result (BSA [4]) | binding result 1 | binding result 2 | binding result (Negative) | binding result (Irrelevant Glycopeptide) | binding result [5] | binding result [6] | binding result [7] | binding result [8] | binding result (BSA [9]) | binding result [10] | binding result [11] | binding result [12] |
| --- | --- | --- | --- | --- | --- | --- | --- | --- | --- | --- | --- | --- | --- | --- | --- | --- | --- | --- |
| 5E5 (antibody) | 18 | 2.93 | – | – | – | – | – | – | – | – | – | – | – | – | – | – | – | – |
| B1 | 2.23 | 6.07 | 37.3 | 0.007 | 179000 | no binding | binds | binds | no binding (tested: 0.25 ug/ml coating peptide) | no binding (tested: 0.25 ug/ml coating peptide) | binds | binds | no binding (tested: 0.25 ug/ml coating peptide) | binds | – | – | – | – |
| B2 | 1.63 | 14.6 | 3.4 | 0.00093 | 272000 | – | binds | binds | no binding (tested: 0.25 ug/ml coating peptide) | no binding (tested: 0.25 ug/ml coating peptide) | binds | binds | no binding (tested: 0.25 ug/ml coating peptide) | binds | no binding (tested: 10 ug/ml on the peptide axis) | binds | binds | binds |

From patent publication US20210269552A1 (GO THERAPEUTICS, published 2021)
